The text below walks through data of publication PMC4534038, “Plasmodium falciparum Hop (PfHop) Interacts with the Hsp70 Chaperone in a Nucleotide-Dependent Fashion and Exhibits Ligand Selectivity” (PLoS ONE, 2015).

The target of experiment [1] is T1, Plasmodium falciparum Hsp70-Hsp90 organising protein (PfHop) (Plasmodium falciparum), Q8ILC1.
T1 chain: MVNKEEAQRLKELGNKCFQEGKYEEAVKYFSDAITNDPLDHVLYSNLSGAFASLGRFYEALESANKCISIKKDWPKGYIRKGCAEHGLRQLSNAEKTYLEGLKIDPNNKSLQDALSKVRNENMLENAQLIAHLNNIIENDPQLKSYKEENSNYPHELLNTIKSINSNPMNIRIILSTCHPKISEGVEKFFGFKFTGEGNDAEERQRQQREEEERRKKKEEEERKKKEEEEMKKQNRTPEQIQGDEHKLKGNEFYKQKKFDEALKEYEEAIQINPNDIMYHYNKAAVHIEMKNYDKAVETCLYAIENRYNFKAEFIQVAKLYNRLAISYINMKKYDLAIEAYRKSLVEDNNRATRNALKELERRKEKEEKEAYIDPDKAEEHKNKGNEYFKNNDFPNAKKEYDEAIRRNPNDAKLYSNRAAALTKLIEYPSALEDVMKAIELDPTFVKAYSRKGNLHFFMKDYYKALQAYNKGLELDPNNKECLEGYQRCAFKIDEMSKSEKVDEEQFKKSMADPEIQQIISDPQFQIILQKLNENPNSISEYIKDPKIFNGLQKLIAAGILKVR
Briefly: SPR; ProteOn XPR36, GLC chip; PfHop immobilised by amine coupling, PfHop as analyte (125-2000 nM); self-association, step not told; 25 C; PBS-Tween with 20 mM EDTA, pH 7.4; with 5 mM ADP. The conditions noted are these: remark: other sources report otherwise.

The target of experiment [2] is T1, Plasmodium falciparum Hsp70-Hsp90 …. Briefly: SPR; ProteOn XPR36, GLC chip; PfHop immobilised by amine coupling, PfHop as analyte (125-2000 nM); self-association, step not told; 25 C; PBS-Tween with 20 mM EDTA, pH 7.4; no nucleotide. The conditions noted are these: remark: other sources report otherwise.
Experiment [3] has the same target. Briefly: SPR; ProteOn XPR36, GLC chip; PfHop immobilised by amine coupling, PfHop as analyte (125-2000 nM); self-association, step not told; 25 C; PBS-Tween with 20 mM EDTA, pH 7.4; with 5 mM ATP. The conditions noted are these: remark: other sources report otherwise. (Surface plasmon resonance follows binding to a sensor surface in real time, without labels.)
Experiment [4] deals with Plasmodium falciparum Hsp70 (PfHsp70-1), full length, recombinant, his-tagged (Plasmodium falciparum, UniProt Q8IB24 1-677). The experiment in a line: far-Western, overlay or dot blot; PfHsp70-1 (25, 37.5, 50 μg/mL) resolved by SDS-PAGE, blotted, denatured and renatured with urea (8 M-0 M); overlaid with PfHop in protein-binding buffer (100 mM NaCl, 20 mM Tris pH 7.6, 0.5 mM EDTA, 10% glycerol, 0.1% Tween-20, 2% skim milk, 1 mM DTT) overnight at 4°C; no nucleotide, 5 μM ADP or 5 μM ATP; detected with α-PfHop. The conditions noted are these: both partners purified.

B1: Plasmodium falciparum Hsp70-Hsp90 organising protein (PfHop), Q8ILC1 1-564 (natural protein)
chain: T1 chain
With B1, the figures for the Kd in experiment [1], in experiment [2] and in experiment [3] were 7.85 nM, 1.57 nM and 5.18 nM, respectively. Also, the figures for the koff in experiment [1], in experiment [2] and in experiment [3] were 0.000464 s⁻¹, 0.000359 s⁻¹ and 0.000329 s⁻¹, respectively. Also, the on-rate (kon) in experiment [1] worked out at 59100 M⁻¹ s⁻¹; in experiment [2], 228000 M⁻¹ s⁻¹; in experiment [3], 63500 M⁻¹ s⁻¹.

B2: Plasmodium falciparum Hsp70-Hsp90 organising protein (PfHop), recombinant, his-tagged (natural protein, UniProt Q8ILC1 1-564, looked up)
chain: T1 chain
Take B2: the binding result in experiment [4] was “binds”.

For orientation: Kd means a measure of binding affinity in units of concentration. Low readings indicate tighter binding, high ones weaker binding. What is called koff is the first-order rate constant of dissociation. One may read the kon as the rate constant with which the complex forms. Read a low kon as slow association.
